In the assay the test system is murine brain endothelial cells (MBEC). Put plainly: Nitrite production by MBEC exposed to cytokines / immunomodulators (Griess assay). The following applies: IFN 100 U/ml, TNF 500 U/ml, IL-1 10 U/ml, endotoxin 1 μg/ml; 48 hours. Type of assay: cell-based.

From patent publication US5770623A, “Argine antagonists for inhibition of systemic hypotension associated with nitric oxide production or endothelial derived relaxing factor” (Board of Regents, The University of Texas System, priority 1995, dated 1998) come the findings set out here.

Description: Endothelial cells--MBEC's were isolated from murine brain microvessels and cultured on gelatin-coated tissue culture dishes in DME/F12 media supplemented with 2% PPPHS, 5% FBS (Hyolone), 50 μg/ml ECGF (Biomed Tech), and 10 U/ml heparin (Sigma) as previously described (Belloni et al. 1989). The endothelial derivation of MBEC's was determined by the presence of a non-thrombogenic surface to platelets and immunofluorescent staining for Factor VIII related antigen. MBEC's were used between passage 6-9 for all experiments.
Nitrite Assay--MBE cells were cultured on gelatin-coated well plates (Corning) in 100 μl of culture medium and treated with cytokines at 3 days post-confluence. After 48 hours, nitrite production was determined by a colorimetric assay. […] All treatments were performed in triplicate and data presented as the mean value±standard deviation.

B1: IFN: recombinant murine gamma-interferon (protein, UniProt P01580 23-155, looked up)
Interferon gamma: HGTVIESLESLNNYFNSSGIDVEEKSLFLDIWRNWQKDGDMKILQSQIISFYLRLFEVLKDNQAISNNISVIESHLITTFFSNSKAKKDAFMSIAKFEVNNPQVQRQAFNELIRVVHQLLPESSLRKRKRSRC
Regarding B1, the “effect on nitrite production by MBEC” value is on record as “no effect”.
